Test results published in publication doi:10.1101/699967 (bioRxiv, 2019).

Target: HaloTag-Brd4-BD1_BD2-NanoLuc (aa 44-460) (human, UniProt O60885 44-460, HaloTag NanoBRET 618 fluorescent ligand on the HaloTag (experimental samples))
Experiment: FRET or BRET

EC50: 7.5 ± 3.5 µM
Binder: SGRGKGGKGLGKGGAKRHR (acetyl-lysine at 5, 8 and 16) [H4(1-19)K5/8/16-triacetyl histone peptide]
